Molecular target: murine monoclonal IgE antibody 2F5 (anti-profilin Hev b 8)
Experiment: ELISA
Details: chain shown with the change; n = 4; parent: est. 0.26; read off a plot

B1: recombinant maize profilin (rZea m 12) E128D (protein)
chain: GMSWQAYVDDHLLCDIEGQHLSAAAIVGHDGSVWAQSENFPELKPEEVAGMIKDFDEPGTLAPTGLFVGGTKYMVIQGEPGVVIRGKKGTGGITIKKTGMSLIIGIYDEPMTPGQCNMVVERLGDYLIDQGF
response: 0.4 Abs 405nm
